Source: patent US20260167699A1 (Chugai, published 2026)

T1: FcγRIIa(R) extracellular domain with C-terminal His tag (human, UniProt P12318 34-217)
T1 construct: extracellular domain; R131 allotype; also called 2aR; CD32
T1 sequence: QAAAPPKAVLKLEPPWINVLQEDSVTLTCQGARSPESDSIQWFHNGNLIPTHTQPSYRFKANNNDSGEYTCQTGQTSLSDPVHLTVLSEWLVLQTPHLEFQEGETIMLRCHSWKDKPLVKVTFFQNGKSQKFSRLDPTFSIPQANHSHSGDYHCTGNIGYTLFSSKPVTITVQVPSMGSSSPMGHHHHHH

T2: FcγRIIa(H) extracellular domain with C-terminal His tag (human, UniProt P12318 34-217)
T2 construct: extracellular domain; H131 allotype; also called 2aH; CD32
T2 sequence: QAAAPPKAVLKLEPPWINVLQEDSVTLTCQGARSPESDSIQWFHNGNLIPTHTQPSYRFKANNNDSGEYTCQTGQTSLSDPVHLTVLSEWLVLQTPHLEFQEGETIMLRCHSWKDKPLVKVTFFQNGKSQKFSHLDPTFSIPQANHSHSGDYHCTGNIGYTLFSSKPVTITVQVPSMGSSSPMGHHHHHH

T3: FcγRIIb extracellular domain with C-terminal His tag (human, UniProt P31994 43-217)
T3 construct: extracellular domain; also called 2b; CD32
T3 sequence: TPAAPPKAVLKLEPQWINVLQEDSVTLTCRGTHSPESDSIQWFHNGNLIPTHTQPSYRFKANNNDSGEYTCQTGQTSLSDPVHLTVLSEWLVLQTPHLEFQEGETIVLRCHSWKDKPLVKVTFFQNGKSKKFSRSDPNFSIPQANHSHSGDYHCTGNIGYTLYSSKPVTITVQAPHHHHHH


How the values were obtained:
Assay in all cases: SPR; % of GpH7-A5/GpH7-B3/GpL16-k0
[1] = biological target: T4, FcγRIa extracellular domain with C-terminal His tag (human, UniProt P12314 16-292)
T4 construct: extracellular domain; also called 1a; CD64

[2] = biological target: T1, FcγRIIa(R) extracellular domain with …
[3] = biological target: T2, FcγRIIa(H) extracellular domain with …
[4] = biological target: T3, FcγRIIb extracellular domain with …
[5] = biological target: T5, FcγRIIIa extracellular domain with C-terminal His tag (human, UniProt P08637 17-208)
T5 construct: extracellular domain; also called 3a; CD16
T5 sequence (P08637 other isoform, or with tags, fused parts or gaps): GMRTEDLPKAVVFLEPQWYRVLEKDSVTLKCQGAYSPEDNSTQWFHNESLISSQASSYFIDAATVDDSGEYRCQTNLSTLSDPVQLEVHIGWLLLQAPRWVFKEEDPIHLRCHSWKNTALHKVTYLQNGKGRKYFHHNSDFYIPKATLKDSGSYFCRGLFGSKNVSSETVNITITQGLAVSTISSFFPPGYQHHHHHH

T4 sequence (P12314 other isoform, or with tags, fused parts or gaps): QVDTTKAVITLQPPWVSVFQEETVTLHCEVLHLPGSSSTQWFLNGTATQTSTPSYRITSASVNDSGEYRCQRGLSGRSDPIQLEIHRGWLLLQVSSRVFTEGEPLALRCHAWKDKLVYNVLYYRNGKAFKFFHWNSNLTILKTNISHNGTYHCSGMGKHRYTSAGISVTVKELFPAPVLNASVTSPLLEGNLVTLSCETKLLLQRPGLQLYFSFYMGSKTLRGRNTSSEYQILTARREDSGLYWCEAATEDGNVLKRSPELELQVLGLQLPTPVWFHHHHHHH

He/Con 1a [1] [%] | He/Con 2aR [2] [%] | He/Con 2aH [3] [%] | He/Con 2b [4] [%] | He/Con 3a [5] [%] | Binder
105 | 104 | 104 | 101 | 88.8 | GpH7-A5/GpH7-B3 variant I336_12R/GpL16-k0 (antibody, human IgG1, kappa, heterodimerized IgG1 (He Ab), mutation in one H chain only; also called He Ab) heavy 1: not shown heavy 2: not shown light: DIVMTQSPLSLPVTPGEPASISCQASESLVHSNRNTYLHWYLQKPGQSPQLLIYKVSNRFSGVPDRFSGSGSGTDFTLKISRVEAEDVGVYYCSQNTHVPPTFGQGTKVEIERTVAAPSVFIFPPSDEQLKSGTASVVCLLNNFYPREAKVQWKVDNALQSGNSQESVTEQDSKDSTYSLSSTLTLSKADYEKHKVYACEVTHQGLSSPVTKSFNRGEC
106 | 83.1 | 84.6 | 74.5 | 83.4 | GpH7-A5/GpH7-B3 variant I336_15Y/GpL16-k0 (antibody, human IgG1, kappa, heterodimerized IgG1 (He Ab), mutation in one H chain only; also called He Ab) heavy 1: not shown heavy 2: not shown light: DIVMTQSPLSLPVTPGEPASISCQASESLVHSNRNTYLHWYLQKPGQSPQLLIYKVSNRFSGVPDRFSGSGSGTDFTLKISRVEAEDVGVYYCSQNTHVPPTFGQGTKVEIERTVAAPSVFIFPPSDEQLKSGTASVVCLLNNFYPREAKVQWKVDNALQSGNSQESVTEQDSKDSTYSLSSTLTLSKADYEKHKVYACEVTHQGLSSPVTKSFNRGEC
98.7 | 141 | 112 | 136 | 138 | GpH7-A5/GpH7-B3 variant K334_05P/GpL16-k0 (antibody, human IgG1, kappa, heterodimerized IgG1 (He Ab), mutation in one H chain only; also called He Ab) heavy 1: not shown heavy 2: not shown light: DIVMTQSPLSLPVTPGEPASISCQASESLVHSNRNTYLHWYLQKPGQSPQLLIYKVSNRFSGVPDRFSGSGSGTDFTLKISRVEAEDVGVYYCSQNTHVPPTFGQGTKVEIERTVAAPSVFIFPPSDEQLKSGTASVVCLLNNFYPREAKVQWKVDNALQSGNSQESVTEQDSKDSTYSLSSTLTLSKADYEKHKVYACEVTHQGLSSPVTKSFNRGEC
104 | 99.1 | 97.4 | 93.8 | 92.8 | GpH7-A5/GpH7-B3 variant I336_16H/GpL16-k0 (antibody, human IgG1, kappa, heterodimerized IgG1 (He Ab), mutation in one H chain only; also called He Ab) heavy 1: not shown heavy 2: not shown light: DIVMTQSPLSLPVTPGEPASISCQASESLVHSNRNTYLHWYLQKPGQSPQLLIYKVSNRFSGVPDRFSGSGSGTDFTLKISRVEAEDVGVYYCSQNTHVPPTFGQGTKVEIERTVAAPSVFIFPPSDEQLKSGTASVVCLLNNFYPREAKVQWKVDNALQSGNSQESVTEQDSKDSTYSLSSTLTLSKADYEKHKVYACEVTHQGLSSPVTKSFNRGEC
99.6 | 150 | 121 | 143 | 152 | GpH7-A5/GpH7-B3 variant K334_04F/GpL16-k0 (antibody, human IgG1, kappa, heterodimerized IgG1 (He Ab), mutation in one H chain only; also called He Ab) heavy 1: not shown heavy 2: not shown light: DIVMTQSPLSLPVTPGEPASISCQASESLVHSNRNTYLHWYLQKPGQSPQLLIYKVSNRFSGVPDRFSGSGSGTDFTLKISRVEAEDVGVYYCSQNTHVPPTFGQGTKVEIERTVAAPSVFIFPPSDEQLKSGTASVVCLLNNFYPREAKVQWKVDNALQSGNSQESVTEQDSKDSTYSLSSTLTLSKADYEKHKVYACEVTHQGLSSPVTKSFNRGEC
99.1 | 160 | 126 | 161 | 154 | GpH7-A5/GpH7-B3 variant K334_03V/GpL16-k0 (antibody, human IgG1, kappa, heterodimerized IgG1 (He Ab), mutation in one H chain only; also called He Ab) heavy 1: not shown heavy 2: not shown light: DIVMTQSPLSLPVTPGEPASISCQASESLVHSNRNTYLHWYLQKPGQSPQLLIYKVSNRFSGVPDRFSGSGSGTDFTLKISRVEAEDVGVYYCSQNTHVPPTFGQGTKVEIERTVAAPSVFIFPPSDEQLKSGTASVVCLLNNFYPREAKVQWKVDNALQSGNSQESVTEQDSKDSTYSLSSTLTLSKADYEKHKVYACEVTHQGLSSPVTKSFNRGEC
108 | 102 | 103 | 97.8 | 103 | GpH7-A5/GpH7-B3 variant I336_14T/GpL16-k0 (antibody, human IgG1, kappa, heterodimerized IgG1 (He Ab), mutation in one H chain only; also called He Ab) heavy 1: not shown heavy 2: not shown light: DIVMTQSPLSLPVTPGEPASISCQASESLVHSNRNTYLHWYLQKPGQSPQLLIYKVSNRFSGVPDRFSGSGSGTDFTLKISRVEAEDVGVYYCSQNTHVPPTFGQGTKVEIERTVAAPSVFIFPPSDEQLKSGTASVVCLLNNFYPREAKVQWKVDNALQSGNSQESVTEQDSKDSTYSLSSTLTLSKADYEKHKVYACEVTHQGLSSPVTKSFNRGEC
98.7 | 155 | 126 | 154 | 156 | GpH7-A5/GpH7-B3 variant K334_07I/GpL16-k0 (antibody, human IgG1, kappa, heterodimerized IgG1 (He Ab), mutation in one H chain only; also called He Ab) heavy 1: not shown heavy 2: not shown light: DIVMTQSPLSLPVTPGEPASISCQASESLVHSNRNTYLHWYLQKPGQSPQLLIYKVSNRFSGVPDRFSGSGSGTDFTLKISRVEAEDVGVYYCSQNTHVPPTFGQGTKVEIERTVAAPSVFIFPPSDEQLKSGTASVVCLLNNFYPREAKVQWKVDNALQSGNSQESVTEQDSKDSTYSLSSTLTLSKADYEKHKVYACEVTHQGLSSPVTKSFNRGEC
100 | 143 | 111 | 139 | 152 | GpH7-A5/GpH7-B3 variant K334_02A/GpL16-k0 (antibody, human IgG1, kappa, heterodimerized IgG1 (He Ab), mutation in one H chain only; also called He Ab) heavy 1: not shown heavy 2: not shown light: DIVMTQSPLSLPVTPGEPASISCQASESLVHSNRNTYLHWYLQKPGQSPQLLIYKVSNRFSGVPDRFSGSGSGTDFTLKISRVEAEDVGVYYCSQNTHVPPTFGQGTKVEIERTVAAPSVFIFPPSDEQLKSGTASVVCLLNNFYPREAKVQWKVDNALQSGNSQESVTEQDSKDSTYSLSSTLTLSKADYEKHKVYACEVTHQGLSSPVTKSFNRGEC
106 | 97.4 | 101 | 91.5 | 97.1 | GpH7-A5/GpH7-B3 variant I336_13S/GpL16-k0 (antibody, human IgG1, kappa, heterodimerized IgG1 (He Ab), mutation in one H chain only; also called He Ab) heavy 1: not shown heavy 2: not shown light: DIVMTQSPLSLPVTPGEPASISCQASESLVHSNRNTYLHWYLQKPGQSPQLLIYKVSNRFSGVPDRFSGSGSGTDFTLKISRVEAEDVGVYYCSQNTHVPPTFGQGTKVEIERTVAAPSVFIFPPSDEQLKSGTASVVCLLNNFYPREAKVQWKVDNALQSGNSQESVTEQDSKDSTYSLSSTLTLSKADYEKHKVYACEVTHQGLSSPVTKSFNRGEC
99.1 | 145 | 120 | 137 | 148 | GpH7-A5/GpH7-B3 variant K334_08L/GpL16-k0 (antibody, human IgG1, kappa, heterodimerized IgG1 (He Ab), mutation in one H chain only; also called He Ab) heavy 1: not shown heavy 2: not shown light: DIVMTQSPLSLPVTPGEPASISCQASESLVHSNRNTYLHWYLQKPGQSPQLLIYKVSNRFSGVPDRFSGSGSGTDFTLKISRVEAEDVGVYYCSQNTHVPPTFGQGTKVEIERTVAAPSVFIFPPSDEQLKSGTASVVCLLNNFYPREAKVQWKVDNALQSGNSQESVTEQDSKDSTYSLSSTLTLSKADYEKHKVYACEVTHQGLSSPVTKSFNRGEC
107 | 70.9 | 76.4 | 63.6 | 88.4 | GpH7-A5/GpH7-B3 variant I336_19Q/GpL16-k0 (antibody, human IgG1, kappa, heterodimerized IgG1 (He Ab), mutation in one H chain only; also called He Ab) heavy 1: not shown heavy 2: not shown light: DIVMTQSPLSLPVTPGEPASISCQASESLVHSNRNTYLHWYLQKPGQSPQLLIYKVSNRFSGVPDRFSGSGSGTDFTLKISRVEAEDVGVYYCSQNTHVPPTFGQGTKVEIERTVAAPSVFIFPPSDEQLKSGTASVVCLLNNFYPREAKVQWKVDNALQSGNSQESVTEQDSKDSTYSLSSTLTLSKADYEKHKVYACEVTHQGLSSPVTKSFNRGEC
99 | 144 | 121 | 141 | 149 | GpH7-A5/GpH7-B3 variant K334_06M/GpL16-k0 (antibody, human IgG1, kappa, heterodimerized IgG1 (He Ab), mutation in one H chain only; also called He Ab) heavy 1: not shown heavy 2: not shown light: DIVMTQSPLSLPVTPGEPASISCQASESLVHSNRNTYLHWYLQKPGQSPQLLIYKVSNRFSGVPDRFSGSGSGTDFTLKISRVEAEDVGVYYCSQNTHVPPTFGQGTKVEIERTVAAPSVFIFPPSDEQLKSGTASVVCLLNNFYPREAKVQWKVDNALQSGNSQESVTEQDSKDSTYSLSSTLTLSKADYEKHKVYACEVTHQGLSSPVTKSFNRGEC
111 | 110 | 107 | 107 | 99.4 | GpH7-A5/GpH7-B3 variant I336_18N/GpL16-k0 (antibody, human IgG1, kappa, heterodimerized IgG1 (He Ab), mutation in one H chain only; also called He Ab) heavy 1: not shown heavy 2: not shown light: DIVMTQSPLSLPVTPGEPASISCQASESLVHSNRNTYLHWYLQKPGQSPQLLIYKVSNRFSGVPDRFSGSGSGTDFTLKISRVEAEDVGVYYCSQNTHVPPTFGQGTKVEIERTVAAPSVFIFPPSDEQLKSGTASVVCLLNNFYPREAKVQWKVDNALQSGNSQESVTEQDSKDSTYSLSSTLTLSKADYEKHKVYACEVTHQGLSSPVTKSFNRGEC
98 | 127 | 92.5 | 119 | 125 | GpH7-A5/GpH7-B3 variant K334_01G/GpL16-k0 (antibody, human IgG1, kappa, heterodimerized IgG1 (He Ab), mutation in one H chain only; also called He Ab) heavy 1: not shown heavy 2: not shown light: DIVMTQSPLSLPVTPGEPASISCQASESLVHSNRNTYLHWYLQKPGQSPQLLIYKVSNRFSGVPDRFSGSGSGTDFTLKISRVEAEDVGVYYCSQNTHVPPTFGQGTKVEIERTVAAPSVFIFPPSDEQLKSGTASVVCLLNNFYPREAKVQWKVDNALQSGNSQESVTEQDSKDSTYSLSSTLTLSKADYEKHKVYACEVTHQGLSSPVTKSFNRGEC
